According to patent US20260167734A1:

Biological target: human FasL, cell surface (membrane-bound) (human) (UniProt P48023)
Assay: cell-based or functional assay

Chain of human FasL, cell surface (membrane-bound) (human) (P48023 whole entry): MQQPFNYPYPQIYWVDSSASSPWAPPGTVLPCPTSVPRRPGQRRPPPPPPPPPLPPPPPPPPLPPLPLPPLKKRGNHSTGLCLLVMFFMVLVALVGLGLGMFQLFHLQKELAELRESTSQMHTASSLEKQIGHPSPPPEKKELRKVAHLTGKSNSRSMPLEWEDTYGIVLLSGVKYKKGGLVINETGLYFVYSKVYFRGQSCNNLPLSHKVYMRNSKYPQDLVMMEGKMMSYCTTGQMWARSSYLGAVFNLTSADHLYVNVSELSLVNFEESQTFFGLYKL

## soluble CD95-Fc (sCD95-Fc) fusion protein (from UniProt P25445 26-172) (Fc fusion)
  inhibition of FasL-mediated apoptosis of Jurkat cells (annexin-V externalization, flow cytometry), IC50: 102 nM
